Laboratory results: patent US20230287598A1

Molecular target: Kv1.3 (human (T-cells from human blood donors)) (UniProt P22001)
Assay: cell-based or functional assay

Kv1.3 (human (T-cells from human blood donors)), sequence (P22001 whole entry): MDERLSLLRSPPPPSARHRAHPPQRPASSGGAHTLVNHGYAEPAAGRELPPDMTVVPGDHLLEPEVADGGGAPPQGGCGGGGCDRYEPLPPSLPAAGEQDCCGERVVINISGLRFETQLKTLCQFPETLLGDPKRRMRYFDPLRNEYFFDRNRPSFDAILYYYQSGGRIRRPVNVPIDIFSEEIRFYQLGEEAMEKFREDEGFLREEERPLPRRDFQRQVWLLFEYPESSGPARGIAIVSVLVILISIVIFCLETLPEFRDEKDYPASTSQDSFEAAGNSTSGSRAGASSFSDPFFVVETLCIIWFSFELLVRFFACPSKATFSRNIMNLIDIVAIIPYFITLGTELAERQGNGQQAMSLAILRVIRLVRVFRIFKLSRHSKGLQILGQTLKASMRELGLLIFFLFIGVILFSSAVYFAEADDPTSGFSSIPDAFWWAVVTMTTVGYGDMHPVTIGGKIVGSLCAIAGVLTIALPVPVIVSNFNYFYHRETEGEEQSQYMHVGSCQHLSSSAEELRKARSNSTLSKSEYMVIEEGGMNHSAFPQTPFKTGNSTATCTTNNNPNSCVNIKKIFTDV

| Substance | TNF-α ELISA (A450), Donor 1, 6 nM IgG [A450] | TNF-α ELISA (A450), Donor 1, 17 nM IgG [A450] | TNF-α ELISA (A450), Donor 1, 50 nM IgG [A450] | TNF-α ELISA (A450), Donor 1, 150 nM IgG [A450] | TNF-α ELISA (A450), Donor 2, 6 nM IgG [A450] | TNF-α ELISA (A450), Donor 2, 17 nM IgG [A450] | TNF-α ELISA (A450), Donor 2, 50 nM IgG [A450] | TNF-α ELISA (A450), Donor 2, 150 nM IgG [A450] | TNF-α ELISA (A450), Donor 3, 6 nM IgG [A450] | TNF-α ELISA (A450), Donor 3, 17 nM IgG [A450] | TNF-α ELISA (A450), Donor 3, 50 nM IgG [A450] | TNF-α ELISA (A450), Donor 3, 150 nM IgG [A450] |
| --- | --- | --- | --- | --- | --- | --- | --- | --- | --- | --- | --- | --- |
| BLV1H12 GLLV 3xG4S OSK1 (K16,D20) (antibody) | 0.641 | 0.698 | 0.556 | 0.253 | 0.096 | 0.094 | 0.075 | 0.027 | 0.159 | 0.144 | 0.102 | 0.029 |
| BLV1H12 GLLV 3xG4S OSK1 (P12,K16,D20) (antibody) | 0.666 | 0.651 | 0.58 | 0.171 | 0.121 | 0.108 | 0.097 | 0.037 | 0.191 | 0.168 | 0.122 | 0.037 |
